Assay results reported in publication PMC3334620.

Key:
[1] = biological target: T1, Msn1 (Saccharomyces cerevisiae) (UniProt P22148); conditions: 200 nM
T1 sequence: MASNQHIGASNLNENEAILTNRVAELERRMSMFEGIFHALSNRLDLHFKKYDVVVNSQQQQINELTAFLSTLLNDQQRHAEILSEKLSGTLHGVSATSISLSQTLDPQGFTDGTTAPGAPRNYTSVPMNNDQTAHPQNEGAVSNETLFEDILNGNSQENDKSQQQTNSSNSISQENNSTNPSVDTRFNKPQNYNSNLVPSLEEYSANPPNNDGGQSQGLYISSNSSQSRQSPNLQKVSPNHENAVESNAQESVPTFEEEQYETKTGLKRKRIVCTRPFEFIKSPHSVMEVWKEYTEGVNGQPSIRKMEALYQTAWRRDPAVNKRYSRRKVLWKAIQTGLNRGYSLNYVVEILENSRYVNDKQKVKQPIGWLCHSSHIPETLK

[2] = biological target: T2, Mot3 (Saccharomyces cerevisiae) (UniProt P54785); conditions: 200 nM
T2 sequence: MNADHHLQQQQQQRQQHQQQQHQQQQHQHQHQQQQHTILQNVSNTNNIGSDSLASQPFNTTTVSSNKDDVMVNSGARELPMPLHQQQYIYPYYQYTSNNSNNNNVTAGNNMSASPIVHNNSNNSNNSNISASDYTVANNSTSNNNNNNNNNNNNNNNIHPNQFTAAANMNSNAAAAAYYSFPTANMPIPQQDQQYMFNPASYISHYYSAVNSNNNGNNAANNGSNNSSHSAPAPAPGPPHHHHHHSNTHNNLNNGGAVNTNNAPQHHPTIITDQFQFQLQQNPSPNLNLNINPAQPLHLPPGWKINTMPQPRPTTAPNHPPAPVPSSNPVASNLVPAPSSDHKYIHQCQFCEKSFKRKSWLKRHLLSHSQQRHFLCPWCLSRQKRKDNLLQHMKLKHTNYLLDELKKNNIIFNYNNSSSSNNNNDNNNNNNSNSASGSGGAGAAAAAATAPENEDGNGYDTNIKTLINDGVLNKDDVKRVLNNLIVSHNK

[3] = biological target: T3, Hmlalpha2 (Saccharomyces cerevisiae) (UniProt P0CY09); conditions: 200 nM
T3 sequence: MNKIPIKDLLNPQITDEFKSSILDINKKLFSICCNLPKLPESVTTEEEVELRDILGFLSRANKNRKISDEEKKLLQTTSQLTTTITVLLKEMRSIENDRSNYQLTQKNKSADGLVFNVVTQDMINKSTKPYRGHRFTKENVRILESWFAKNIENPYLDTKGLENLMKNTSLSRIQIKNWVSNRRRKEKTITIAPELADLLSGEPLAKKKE

[4] = biological target: T4, Gcr1 (Saccharomyces cerevisiae) (UniProt P07261); conditions: 100 nM
T4 sequence: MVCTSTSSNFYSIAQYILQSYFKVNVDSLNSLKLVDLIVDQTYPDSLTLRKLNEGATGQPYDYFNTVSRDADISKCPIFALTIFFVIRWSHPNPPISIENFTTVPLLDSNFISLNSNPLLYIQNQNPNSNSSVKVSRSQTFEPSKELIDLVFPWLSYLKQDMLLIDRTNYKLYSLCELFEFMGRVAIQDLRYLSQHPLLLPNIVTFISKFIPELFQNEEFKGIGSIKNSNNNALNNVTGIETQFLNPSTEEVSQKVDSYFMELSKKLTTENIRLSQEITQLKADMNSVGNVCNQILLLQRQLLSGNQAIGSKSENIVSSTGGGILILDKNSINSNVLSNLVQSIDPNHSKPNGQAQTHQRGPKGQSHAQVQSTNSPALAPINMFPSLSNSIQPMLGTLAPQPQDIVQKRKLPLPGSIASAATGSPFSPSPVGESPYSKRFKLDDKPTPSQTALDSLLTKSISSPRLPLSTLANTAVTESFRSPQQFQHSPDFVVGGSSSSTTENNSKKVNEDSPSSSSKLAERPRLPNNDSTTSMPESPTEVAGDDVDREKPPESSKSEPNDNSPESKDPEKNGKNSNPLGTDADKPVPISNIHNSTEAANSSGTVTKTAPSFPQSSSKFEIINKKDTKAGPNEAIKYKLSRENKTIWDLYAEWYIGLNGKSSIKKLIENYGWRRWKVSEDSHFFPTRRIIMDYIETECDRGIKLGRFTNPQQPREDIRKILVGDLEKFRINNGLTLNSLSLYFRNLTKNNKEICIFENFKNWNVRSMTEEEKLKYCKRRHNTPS

[5] = biological target: T5, Ecm22 (Saccharomyces cerevisiae) (UniProt Q05958); conditions: 200 nM
T5 sequence: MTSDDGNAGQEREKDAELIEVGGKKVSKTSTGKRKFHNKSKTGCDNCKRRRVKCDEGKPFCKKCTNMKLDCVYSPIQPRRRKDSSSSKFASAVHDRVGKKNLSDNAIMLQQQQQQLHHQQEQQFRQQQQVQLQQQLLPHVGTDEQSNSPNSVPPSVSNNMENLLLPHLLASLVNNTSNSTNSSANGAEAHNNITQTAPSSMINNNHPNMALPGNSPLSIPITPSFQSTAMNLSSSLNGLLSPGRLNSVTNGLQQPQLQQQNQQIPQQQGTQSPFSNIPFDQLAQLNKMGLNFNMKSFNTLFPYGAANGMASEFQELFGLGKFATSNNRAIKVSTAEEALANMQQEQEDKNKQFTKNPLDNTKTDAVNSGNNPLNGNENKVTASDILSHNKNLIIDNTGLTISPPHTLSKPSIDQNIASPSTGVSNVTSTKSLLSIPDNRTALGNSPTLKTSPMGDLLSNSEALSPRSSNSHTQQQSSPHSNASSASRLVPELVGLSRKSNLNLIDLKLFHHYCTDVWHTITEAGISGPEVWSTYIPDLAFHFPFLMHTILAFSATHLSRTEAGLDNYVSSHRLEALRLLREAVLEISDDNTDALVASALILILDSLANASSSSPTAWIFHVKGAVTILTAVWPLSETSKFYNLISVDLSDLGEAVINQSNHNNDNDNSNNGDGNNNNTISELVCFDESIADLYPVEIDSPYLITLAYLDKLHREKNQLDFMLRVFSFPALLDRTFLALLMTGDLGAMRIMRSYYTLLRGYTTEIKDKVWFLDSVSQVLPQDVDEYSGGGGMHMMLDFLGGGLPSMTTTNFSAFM

## AAAATGTC (double strand) [8-mer AAAATGTC]
[1]
  binding signal (PBM E-score (-0.5 to 0.5)): 0.491

## AAAGGCAC (double strand) [8-mer AAAGGCAC]
[2]
  binding signal (PBM E-score (-0.5 to 0.5)): 0.495

## AAATGTCC (double strand) [8-mer AAATGTCC]
[1]
  binding signal (PBM E-score (-0.5 to 0.5)): 0.498

## AAGGCACC (double strand) [8-mer AAGGCACC]
[2]
  binding signal (PBM E-score (-0.5 to 0.5)): 0.493

## AAGGCACG (double strand) [8-mer AAGGCACG]
[2]
  binding signal (PBM E-score (-0.5 to 0.5)): 0.496

## AATGTCCA (double strand) [8-mer AATGTCCA]
[1]
  binding signal (PBM E-score (-0.5 to 0.5)): 0.493

## AATGTCCC (double strand) [8-mer AATGTCCC]
[1]
  binding signal (PBM E-score (-0.5 to 0.5)): 0.496

## AATGTCCT (double strand) [8-mer AATGTCCT]
[1]
  binding signal (PBM E-score (-0.5 to 0.5)): 0.496

## AATTACAT (double strand) [8-mer AATTACAT]
[3]
  binding signal (PBM E-score (-0.5 to 0.5)): 0.489

## ACAGGCAC (double strand) [8-mer ACAGGCAC]
[2]
  binding signal (PBM E-score (-0.5 to 0.5)): 0.495

## ACATGTAA (double strand) [8-mer ACATGTAA]
[3]
  binding signal (PBM E-score (-0.5 to 0.5)): 0.488

## ACGTGCCT (double strand) [8-mer ACGTGCCT]
[2]
  binding signal (PBM E-score (-0.5 to 0.5)): 0.494

## AGCATCCT (double strand) [8-mer AGCATCCT]
[4]
  binding signal (PBM E-score (-0.5 to 0.5)): 0.465

## AGCTTCCT (double strand) [8-mer AGCTTCCT]
[4]
  binding signal (PBM E-score (-0.5 to 0.5)): 0.485

## AGGAACGA (double strand) [8-mer AGGAACGA]
[5]
  binding signal (PBM E-score (-0.5 to 0.5)): 0.495

## AGGAAGCC (double strand) [8-mer AGGAAGCC]
[4]
  binding signal (PBM E-score (-0.5 to 0.5)): 0.487

## AGGACAAA (double strand) [8-mer AGGACAAA]
[1]
  binding signal (PBM E-score (-0.5 to 0.5)): 0.498

## AGGACATA (double strand) [8-mer AGGACATA]
[1]
  binding signal (PBM E-score (-0.5 to 0.5)): 0.494

## AGGATGCC (double strand) [8-mer AGGATGCC]
[4]
  binding signal (PBM E-score (-0.5 to 0.5)): 0.47

## AGGCACGC (double strand) [8-mer AGGCACGC]
[2]
  binding signal (PBM E-score (-0.5 to 0.5)): 0.496

## AGGTACGA (double strand) [8-mer AGGTACGA]
[5]
  binding signal (PBM E-score (-0.5 to 0.5)): 0.495

## ATATGTCC (double strand) [8-mer ATATGTCC]
[1]
  binding signal (PBM E-score (-0.5 to 0.5)): 0.496

## ATTACACA (double strand) [8-mer ATTACACA]
[3]
  binding signal (PBM E-score (-0.5 to 0.5)): 0.492

## ATTACACG (double strand) [8-mer ATTACACG]
[3]
  binding signal (PBM E-score (-0.5 to 0.5)): 0.495

## ATTACATA (double strand) [8-mer ATTACATA]
[3]
  binding signal (PBM E-score (-0.5 to 0.5)): 0.488

## ATTACATG (double strand) [8-mer ATTACATG]
[3]
  binding signal (PBM E-score (-0.5 to 0.5)): 0.495

## CAGCGTCC (double strand) [8-mer CAGCGTCC]
[4]
  binding signal (PBM E-score (-0.5 to 0.5)): 0.465

## CAGGCACA (double strand) [8-mer CAGGCACA]
[2]
  binding signal (PBM E-score (-0.5 to 0.5)): 0.493

## CAGGCACC (double strand) [8-mer CAGGCACC]
[2]
  binding signal (PBM E-score (-0.5 to 0.5)): 0.496

## CAGGCACG (double strand) [8-mer CAGGCACG]
[2]
  binding signal (PBM E-score (-0.5 to 0.5)): 0.496

## CATGTAAA (double strand) [8-mer CATGTAAA]
[3]
  binding signal (PBM E-score (-0.5 to 0.5)): 0.491

## CATGTTAA (double strand) [8-mer CATGTTAA]
[3]
  binding signal (PBM E-score (-0.5 to 0.5)): 0.489

## CCATGTAA (double strand) [8-mer CCATGTAA]
[3]
  binding signal (PBM E-score (-0.5 to 0.5)): 0.486

## CCGTGTAA (double strand) [8-mer CCGTGTAA]
[3]
  binding signal (PBM E-score (-0.5 to 0.5)): 0.486

## CGGAACGA (double strand) [8-mer CGGAACGA]
[5]
  binding signal (PBM E-score (-0.5 to 0.5)): 0.493

## CGGCTTCC (double strand) [8-mer CGGCTTCC]
[4]
  binding signal (PBM E-score (-0.5 to 0.5)): 0.472

## CGTGCCTA (double strand) [8-mer CGTGCCTA]
[2]
  binding signal (PBM E-score (-0.5 to 0.5)): 0.495

## CGTGTAAA (double strand) [8-mer CGTGTAAA]
[3]
  binding signal (PBM E-score (-0.5 to 0.5)): 0.493

## CTCGTACC (double strand) [8-mer CTCGTACC]
[5]
  binding signal (PBM E-score (-0.5 to 0.5)): 0.496

## CTCGTTCC (double strand) [8-mer CTCGTTCC]
[5]
  binding signal (PBM E-score (-0.5 to 0.5)): 0.496

## CTTTACAC (double strand) [8-mer CTTTACAC]
[3]
  binding signal (PBM E-score (-0.5 to 0.5)): 0.489

## GAAGGCAC (double strand) [8-mer GAAGGCAC]
[2]
  binding signal (PBM E-score (-0.5 to 0.5)): 0.495

## GAGCTTCC (double strand) [8-mer GAGCTTCC]
[4]
  binding signal (PBM E-score (-0.5 to 0.5)): 0.469

## GCAGGCAA (double strand) [8-mer GCAGGCAA]
[2]
  binding signal (PBM E-score (-0.5 to 0.5)): 0.493

## GCAGGCAC (double strand) [8-mer GCAGGCAC]
[2]
  binding signal (PBM E-score (-0.5 to 0.5)): 0.497

## GCTTCCTA (double strand) [8-mer GCTTCCTA]
[4]
  binding signal (PBM E-score (-0.5 to 0.5)): 0.468

## GGAAGCCA (double strand) [8-mer GGAAGCCA]
[4]
  binding signal (PBM E-score (-0.5 to 0.5)): 0.48

## GGAAGCCC (double strand) [8-mer GGAAGCCC]
[4]
  binding signal (PBM E-score (-0.5 to 0.5)): 0.473

## GGAATCCA (double strand) [8-mer GGAATCCA]
[4]
  binding signal (PBM E-score (-0.5 to 0.5)): 0.473

## GGAATCCC (double strand) [8-mer GGAATCCC]
[4]
  binding signal (PBM E-score (-0.5 to 0.5)): 0.464

## GGATTCCA (double strand) [8-mer GGATTCCA]
[4]
  binding signal (PBM E-score (-0.5 to 0.5)): 0.476

## GGCATCCA (double strand) [8-mer GGCATCCA]
[4]
  binding signal (PBM E-score (-0.5 to 0.5)): 0.469

## GGCTTCCA (double strand) [8-mer GGCTTCCA]
[4]
  binding signal (PBM E-score (-0.5 to 0.5)): 0.483

## GGTACGAC (double strand) [8-mer GGTACGAC]
[5]
  binding signal (PBM E-score (-0.5 to 0.5)): 0.495

## GTAGGCAC (double strand) [8-mer GTAGGCAC]
[2]
  binding signal (PBM E-score (-0.5 to 0.5)): 0.495

## GTGCCTGA (double strand) [8-mer GTGCCTGA]
[2]
  binding signal (PBM E-score (-0.5 to 0.5)): 0.493

## TATGTAAA (double strand) [8-mer TATGTAAA]
[3]
  binding signal (PBM E-score (-0.5 to 0.5)): 0.49

## TCGTGTAA (double strand) [8-mer TCGTGTAA]
[3]
  binding signal (PBM E-score (-0.5 to 0.5)): 0.49

## TGTGTAAA (double strand) [8-mer TGTGTAAA]
[3]
  binding signal (PBM E-score (-0.5 to 0.5)): 0.489
